Data on 2 substances can be found in PMC11106487.

Usually stoichiometry N stands for a count of units in the complex or per binding partner.

Values joined by “and” are separate entries in the source; they are usually repeats but may differ in a detail not shown here. Identical values can stand only once.

Test [1] has as its target GFP-FR, stably expressed in CHO cells. As to the kind of experiment: number and brightness (N&B); live CHO cells, 2 days in culture, cell surface imaged at the cell periphery; untreated control.
Test [2] has as its target GFP-FR (GFP fused to the GPI attachment signal of the folate receptor), expressed in MDCK cells. Description: number and brightness (N&B); live polarized MDCK cells, Golgi pool: apical trypsin 25 ug/mL for 25 min to remove the surface pool, untreated (CTR), imaged at the Golgi level.
The target is the same in test [3]. As to the kind of experiment: number and brightness (N&B); live polarized MDCK cells on filters, apical surface, CO2-independent medium pH 7.4; control cells and cells treated with latrunculin A (6 uM, 5 min), jasplakinolide (5 uM, 5 min) or blebbistatin (50 uM, 90 min); also after EGTA followed by calcium replenishment for 3 h; B-values ascribed to oligomer classes by a calibration curve of monomeric, dimeric and trimeric GFP.

The target is the same in test [4]. Description: number and brightness (N&B); live polarized MDCK cells, plasma membrane pool only: cycloheximide 90 min, then with or without EGTA still in the presence of cycloheximide.

Turning to GFP-FR, stably expressed in CHO cells, in test [1], the brightness (B) was determined as 1.3; the stoichiometry N is 3 and 4.
In test [2], “GFP-FR (GFP fused to the GPI attachment signal of the folate receptor), expressed in MDCK cells” gave a mean brightness (B), Golgi pool, control of 1.2. For the same substance, in test [3], the brightness (B) is 1.21; the brightness (B) upon latrunculin A amounted to 1.23; the mean brightness (B), control of the EGTA experiment amounted to 1.29; the stoichiometry N is 3 and 4. In addition, in test [4], the mean brightness (B), plasma membrane pool, control is 1.19 and the mean brightness (B), plasma membrane pool, upon EGTA worked out at 1.2.
